# Substrate: NC(=O)c1ccc[n+]([C@@H]2O[C@H](COP(=O)([O-])OP(=O)(O)OC[C@H]3O[C@@H](n4cnc5c(N)ncnc54)[C@H](O)[C@@H]3O)[C@@H](O)[C@H]2O)c1
# Assay: steady-state deacetylation kinetics (Km)
# Format: biochemical, Mus musculus
protein,measurement,value
"Sirt1 (Mus musculus) (protein, recombinant WT Sirt1) ADEVALALQAAGSPSAAAAMEAASQPADEPLRKRPRRDGPGLGRSPGEPSAAVAPAAAGCEAASAAAPAALWREAAGAAASAEREAPATAVAGDGDNGSGLRREPRAADDFDDDEGEEEDEAAAAAAAAAIGYRDNLLLTDGLLTNGFHSCESDDDDRTSHASSSDWTPRPRIGPYTFVQQHLMIGTDPRTILKDLLPETIPPPELDDMTLWQIVINILSEPPKRKKRKDINTIEDAVKLLQECKKIIVLTGAGVSVSCGIPDFRSRDGIYARLAVDFPDLPDPQAMFDIEYFRKDPRPFFKFAKEIYPGQFQPSLCHKFIALSDKEGKLLRNYTQNIDTLEQVAGIQRILQCHGSFATASCLICKYKVDCEAVRGDIFNQVVPRCPRCPADEPLAIMKPEIVFFGENLPEQFHRAMKYDKDEVDLLIVIGSSLKVRPVALIPSSIPHEVPQILINREPLPHLHFDVELLGDCDVIINELCHRLGGEYAKLCCNPVKLSEITEKPPRPQKELVHLSELPPTPLHISEDSSSPERTVPQDSSVIATLVDQATNNNVNDLEVSESSCVEEKPQEVQTSRNVENINVENPDFKAVGSSTADKNERTSVAETVRKCWPNRLAKEQISKRLEGNQYLFVPPNRYIFHGAEVYSDSEDDVLSSSSCGSNSDSGTCQSPSLEEPLEDESEIEEFYNGLEDDTERPECAGGSGFGADGGDQEVVNEAIATRQELTDVNYPSDKS",Km,203.08 ± 13.24 µM
